Consider 9 molecules from paper PMC3384305 (Nucleic Acids Research, 2012).

Where two headings read alike, the source gives them in different places.

The target of data set [1] is T1, NHTF (NHTF C-His) (UniProt Q7DDD9 1-106).
T1 sequence: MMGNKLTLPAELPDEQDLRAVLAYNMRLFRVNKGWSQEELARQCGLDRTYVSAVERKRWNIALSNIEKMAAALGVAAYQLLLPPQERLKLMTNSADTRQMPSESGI
The data set is described as follows: EMSA. (In general: Mobility shift assays separate free from complexed probe on a gel.)

In data set [2] the target is T1, NHTF (NHTF C-His). The data set is described as follows: EMSA. The source holds these as a separate data set.
Data set [3] deals with the molecule itself. Description: SEC. Background: Size exclusion chromatography separates by hydrodynamic size, large species first.
Data set [4] deals with the molecule itself. The data set is described as follows: SEC. The source holds these as a separate data set.

B1: NHTF 5'UTR fragment 1 (dsDNA)
DNA 1: TGTTTCCCAATCTGTCTTGATTTTATCTCTTTCCTC
DNA 2: GAGGAAAGAGATAAAATCAAGACAGATTGGGAAACA
Consider B1, for which the binding result in data set [1] is listed as “no binding”.

B2: Specific 25-mer (dsDNA)
DNA 1: TATGTGAAGTAAAATCCGTAACAGC
DNA 2: GCTGTTACGGATTTTACTTCACATA
B2: the binding result in data set [1] was “binds”.

B3: NHTF 5'UTR fragment 3 (dsDNA)
DNA 1: CTTTTTTTTGGCTTTTATGTGAAGTAAAATCCGTAACAGC
DNA 2: GCTGTTACGGATTTTACTTCACATAAAAGCCAAAAAAAAG
Take B3: in data set [1], the binding result is “binds”.

B4: NHTF 5'UTR fragment 4 (dsDNA)
DNA 1: AAATGCTTAACTTTAACCATTTATCTGGAAGCAA
DNA 2: TTGCTTCCAGATAAATGGTTAAAGTTAAGCATTT
As to B4, in data set [1], the binding result is reported as “no binding”.

B5: Nonspecific 25-mer (dsDNA)
DNA 1: ACCCCTTTTTTTTGGCTTTTATGTG
DNA 2: CACATAAAAGCCAAAAAAAAGGGGT
Regarding B5, the binding result in data set [2] is recorded as “no binding”.

B6: Specific (mutant) 25-mer (dsDNA)
DNA 1: TACCCGAAGTAAAATCCGTAACAGC
DNA 2: GCTGTTACGGATTTTACTTCGGGTA
As to B6, the binding result in data set [1] is “no binding”.

B7: NHTF 5'UTR fragment 2 (dsDNA)
DNA 1: TTGATGTGTGTGTGTTTGGGTGTGGCTGCCGCCACCC
DNA 2: GGGTGGCGGCAGCCACACCCAAACACACACACATCAA
Regarding B7, the binding result in data set [1] is on record as “no binding”.

B8: DMP19 (NMB0541), without any tag (natural protein, N. meningitidis MC58, UniProt Q9K0P4 1-165, looked up)
chain: MTALTLPEDIRQQEPSALLYTLVSAYLEHTAQTGDESLSCLSDDQHTLTAFCYLDSQVEEGGFVQLIASGYGEYIFRNPLADSLRRWKIKAVPKVLDKAKALYEQHGKTIETLADGGADIPSLRKQFPEFEEWDGAYYEAAEQDLPLLAEHIQSNWETFAHIGQA
Turning to B8, the stoichiometry N – broadly, the number of molecules, sites or subunits per partner or assembly – in data set [3] stood at 2.

B9: C-terminal His6-tagged NHTF transcription factor (natural protein, N. meningitidis MC58)
chain: T1 sequence
Consider B9, for which the “stoichiometry N” value in data set [4] was 2.
